Reference: patent US7144731B2, “SCF antibody compositions and methods of using the same” (Amgen Inc., priority 1989, dated 2006)

Assays:
murine c-kit (mckit-L1) = biological target: T1, murine c-kit (mckit-L1) (Mus musculus, UniProt P05532); assay: ^125I-SCF^1-164 binding to recombinant c-kit in COS-1 cells
T1 construct: expressed in transfected cells; host or cells: COS-1 cells transfected with V19.8 carrying c-kit cDNA cloned from MC/9 mast cells; membrane fractions used
Source text: (§1) To test whether SCF^1-164 is the ligand for c-kit, the cDNA for the entire murine c-kit [Qiu et al., EMBO J., 7, 1003–1011 (1988)] was amplified using PCR from the SCF^1-164 responsive mast cell line MC/9 [Nabel et al., Nature, 291, 332–334 (1981)] with primers designed from the published sequence. The ligand binding and transmembrane domains of human c-kit, encoded by amino acids 1–549 [Yarden et al., EMBO J., 6, 3341–3351 (1987)], were cloned using similar techniques from the human erythroleukemia cell line, HEL [Martin and Papayannopoulou, Science, 216, 1233–1235 (1982)]. The c-kit cDNAs were inserted into the mammalian expression vector V19.8 transfected into COS-1 cells, and membrane fractions prepared for binding assays using either rat or human ^125I-SCF^1-164 according to the methods described in Sections B and C below. […] There was no detectable specific binding of ^125I human SCF^1-164 to COS-1 cells transfected with V19.8 alone. However, COS-1 cells expressing human recombinant c-kit ligand binding plus transmembrane domains (hckit-LT1) did bind ^125I-hSCF^1-164 (Table 17). The addition of a 200 fold molar excess of unlabelled human SCF^1-164 reduced binding to background levels. Similarly, COS-1 cells transfected with the full length murine c-kit (mckit-L1) bound rat ^125I-SCF^1-164. […] This finding is in accord with the broad cellular distribution of c-kit expression. Rat ^125I-SCF^1-164 binds similarly to both human and murine c-kit, while human ^125I-SCF^1-164 bind with lower activity to murine c-kit (Table 17).
(§2) Human and murine c-kit cDNA clones were derived using PCR techniques [Saiki et al., Science, 239, 487–491 (1988)] from total RNA isolated by an acid phenol/chloroform extraction procedure [Chomczynsky and Sacchi, Anal. Biochem., 162, 156–159, (1987)] from the human erythroleukemia cell line HEL and MC/9 cells, respectively. Unique sequence oligonucleotides were designed from the published human and murine c-kit sequences. First strand cDNA was synthesized from the total RNA according to the protocol provided with the enzyme, Mo-MLV reverse transcription (Bethesda Research Laboratories, Bethesda, Md.), using c-kit antisense oligonucleotides as primers. Amplification of overlapping regions of the c-kit ligand binding and tyrosine kinase domains was accomplished using appropriate pairs of c-kit primers. These regions were cloned into the mammalian expression vector V19.8 (FIG. 17) for expression in COS-1 cells. […] A clone free of these mutations was constructed by reassembly of mutation-free restriction fragments from separate clones. […]

human c-kit (hckit-LT1) = biological target: T2, human c-kit (hckit-LT1) (Homo sapiens, UniProt P10721); assay: as above
T2 construct: expressed in transfected cells; host or cells: COS-1 cells transfected with V19.8 carrying c-kit cDNA cloned from HEL cells; membrane fractions used
Source text: as §1, §2

T1 sequence (P05532 25-979): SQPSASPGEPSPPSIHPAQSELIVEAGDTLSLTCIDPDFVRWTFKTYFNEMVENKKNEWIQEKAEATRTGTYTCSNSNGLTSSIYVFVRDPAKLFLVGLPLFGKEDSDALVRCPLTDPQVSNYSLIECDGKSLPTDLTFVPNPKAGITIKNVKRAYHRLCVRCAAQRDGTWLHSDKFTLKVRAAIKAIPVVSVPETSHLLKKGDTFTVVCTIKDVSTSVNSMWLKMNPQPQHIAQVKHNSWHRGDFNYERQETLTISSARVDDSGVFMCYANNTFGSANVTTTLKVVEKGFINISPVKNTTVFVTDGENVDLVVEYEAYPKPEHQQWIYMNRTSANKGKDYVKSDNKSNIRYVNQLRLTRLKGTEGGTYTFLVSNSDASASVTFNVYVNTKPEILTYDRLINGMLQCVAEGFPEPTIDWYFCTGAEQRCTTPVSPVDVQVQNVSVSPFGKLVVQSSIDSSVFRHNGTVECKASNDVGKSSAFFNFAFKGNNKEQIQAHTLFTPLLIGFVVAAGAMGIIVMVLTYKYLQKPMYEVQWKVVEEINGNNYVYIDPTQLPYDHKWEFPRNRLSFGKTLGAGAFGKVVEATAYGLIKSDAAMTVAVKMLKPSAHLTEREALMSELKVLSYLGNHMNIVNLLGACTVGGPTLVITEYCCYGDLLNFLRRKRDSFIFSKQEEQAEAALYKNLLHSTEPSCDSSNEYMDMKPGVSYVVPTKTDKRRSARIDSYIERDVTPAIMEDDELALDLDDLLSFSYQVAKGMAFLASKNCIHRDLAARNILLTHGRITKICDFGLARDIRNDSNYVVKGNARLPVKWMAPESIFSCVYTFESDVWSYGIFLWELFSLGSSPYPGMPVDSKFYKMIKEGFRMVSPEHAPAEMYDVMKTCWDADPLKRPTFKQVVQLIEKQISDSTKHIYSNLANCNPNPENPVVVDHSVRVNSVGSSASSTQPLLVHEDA

B1: rrSCF^1-164: recombinant rat SCF^1-164 from E. coli, also used ^125I-labelled (protein)
chain: QEICRNPVTDNVKDITKLVANLPNDYMITLNYVAGMDVLPSHCWLRDMVTHLSVSLTTLLDKFSNISEGLSNYSIIDKLGKIVDDLVACMEENAPKNVKESLKKPETRNFTPEEFFSIFNRSIDAFKDFMVASDTSDCVLSSTLGPEKDSRVSVTKPFMLPPVA
CPM Bound, ^125I-SCF + cold (murine c-kit (mckit-L1); 1.6 nM ^125I-SCF^1-164 + 320 nM unlabelled SCF^1-164, V19.8:mckit-L1): 600 CPM
CPM Bound, ^125I-SCF (murine c-kit (mckit-L1); 1.6 nM ^125I-SCF^1-164, plasmid V19.8:mckit-L1): 52,700 CPM
CPM Bound, ^125I-SCF + cold (human c-kit (hckit-LT1); 1.6 nM ^125I-SCF^1-164 + 320 nM unlabelled SCF^1-164, V19.8:hckit-LT1): 1,100 CPM
CPM Bound, ^125I-SCF (human c-kit (hckit-LT1); 1.6 nM ^125I-SCF^1-164, plasmid V19.8:hckit-LT1): 70,000 CPM
